Holding throughout (settings): both partners purified
The target of one assay is T1, Tof1 (S. cerevisiae (budding yeast), UniProt P53840 1-1238).
T1 construct: Tof1, budding yeast; the Tof1 chain of m2; Stood in the cross-linking sample as a chain of the Tof1-Csm3 complex; source: purified as part of Tof1-Csm3, as previously described (Yeeles et al. 2017)
T1 sequence (looked up): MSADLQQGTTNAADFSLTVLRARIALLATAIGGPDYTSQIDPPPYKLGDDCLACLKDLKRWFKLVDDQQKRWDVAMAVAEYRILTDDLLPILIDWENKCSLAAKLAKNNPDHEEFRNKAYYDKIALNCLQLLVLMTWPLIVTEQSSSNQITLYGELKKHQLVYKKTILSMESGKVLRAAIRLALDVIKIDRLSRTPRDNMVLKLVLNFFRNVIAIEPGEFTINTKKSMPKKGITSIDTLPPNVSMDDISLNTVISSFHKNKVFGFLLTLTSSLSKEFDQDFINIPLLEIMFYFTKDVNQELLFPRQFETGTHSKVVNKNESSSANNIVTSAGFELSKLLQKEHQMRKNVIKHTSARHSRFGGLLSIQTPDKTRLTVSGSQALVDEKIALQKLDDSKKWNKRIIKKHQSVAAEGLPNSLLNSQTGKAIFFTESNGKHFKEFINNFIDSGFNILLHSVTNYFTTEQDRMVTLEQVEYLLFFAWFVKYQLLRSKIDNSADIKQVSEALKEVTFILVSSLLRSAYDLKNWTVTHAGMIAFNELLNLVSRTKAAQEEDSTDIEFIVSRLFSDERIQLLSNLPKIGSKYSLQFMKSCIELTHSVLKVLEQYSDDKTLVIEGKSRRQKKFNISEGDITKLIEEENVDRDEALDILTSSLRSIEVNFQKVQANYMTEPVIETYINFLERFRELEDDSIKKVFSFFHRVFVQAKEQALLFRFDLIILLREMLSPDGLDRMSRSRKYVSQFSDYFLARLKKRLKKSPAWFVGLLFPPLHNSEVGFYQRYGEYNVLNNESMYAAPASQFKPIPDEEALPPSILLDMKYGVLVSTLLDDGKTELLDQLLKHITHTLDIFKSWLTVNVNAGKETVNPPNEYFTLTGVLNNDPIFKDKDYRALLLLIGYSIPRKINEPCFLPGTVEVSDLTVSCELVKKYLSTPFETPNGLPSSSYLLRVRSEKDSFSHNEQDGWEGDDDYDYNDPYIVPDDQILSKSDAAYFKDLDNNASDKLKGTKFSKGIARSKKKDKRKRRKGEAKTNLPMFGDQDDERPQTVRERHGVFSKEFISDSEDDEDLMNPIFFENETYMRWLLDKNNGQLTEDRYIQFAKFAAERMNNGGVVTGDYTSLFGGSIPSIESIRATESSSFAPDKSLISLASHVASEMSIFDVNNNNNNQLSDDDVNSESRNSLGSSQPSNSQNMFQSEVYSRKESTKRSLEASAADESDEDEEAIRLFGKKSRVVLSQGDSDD
In words: cross-linking; CLMS with sulfo-SDA; cohesin, Tof1-Csm3 and Chl1 with or without Mrc1 at 300-350 nM, 30 °C 5 min, cross-linker 2 h at 4 °C, UV 365 nm; LC-MS/MS, 1% FDR at residue-pair level; two samples merged.

The next assay addresses T2, Chl1 (S. cerevisiae (budding yeast), UniProt P22516 1-861).
T2 construct: Chl1, budding yeast; codon-optimized ectopic copy; also called Flag-tagged Chl1; Chl1 helicase
T2 sequence (looked up): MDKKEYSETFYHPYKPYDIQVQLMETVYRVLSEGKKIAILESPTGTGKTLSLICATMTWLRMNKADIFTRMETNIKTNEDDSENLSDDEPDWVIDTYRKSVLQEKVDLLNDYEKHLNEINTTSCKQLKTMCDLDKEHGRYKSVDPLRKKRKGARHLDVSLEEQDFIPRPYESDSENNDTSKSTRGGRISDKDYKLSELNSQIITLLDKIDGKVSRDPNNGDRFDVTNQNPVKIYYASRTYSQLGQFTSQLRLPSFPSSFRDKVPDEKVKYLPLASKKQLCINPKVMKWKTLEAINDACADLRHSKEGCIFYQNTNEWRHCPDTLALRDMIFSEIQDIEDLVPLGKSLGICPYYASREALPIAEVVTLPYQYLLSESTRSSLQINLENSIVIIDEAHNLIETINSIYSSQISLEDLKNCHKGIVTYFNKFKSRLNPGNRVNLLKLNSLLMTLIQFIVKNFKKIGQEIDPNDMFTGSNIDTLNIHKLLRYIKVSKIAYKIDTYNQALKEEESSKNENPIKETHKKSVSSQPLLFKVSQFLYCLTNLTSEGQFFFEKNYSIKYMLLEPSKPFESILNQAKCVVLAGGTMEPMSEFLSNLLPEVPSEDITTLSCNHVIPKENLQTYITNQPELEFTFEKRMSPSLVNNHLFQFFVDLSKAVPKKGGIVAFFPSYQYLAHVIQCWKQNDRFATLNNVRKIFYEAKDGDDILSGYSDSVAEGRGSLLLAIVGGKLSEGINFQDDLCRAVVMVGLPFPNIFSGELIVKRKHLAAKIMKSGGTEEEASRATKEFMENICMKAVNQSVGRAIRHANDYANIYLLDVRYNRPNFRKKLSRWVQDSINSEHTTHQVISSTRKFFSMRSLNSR
The description is as above.

For assay [1], the target named is T3, cohesin tetramer complex (Smc1-Smc3-Scc1-Scc3) (S. cerevisiae (budding yeast), UniProt P32908 1-1225; P47037 1-1230; Q12158 1-566; P40541 1-1150).
T3 construct: Smc1, cohesin subunit, budding yeast; Smc3, cohesin subunit, budding yeast; Scc1, cohesin subunit, budding yeast; Scc3, cohesin subunit, budding yeast; also called cohesin complex; source: purified as previously described (Minamino et al. 2018): IgG agarose, 3C protease cleavage; copies: + + +
T3 sequence (P32908 whole entry, chain 1 of 3): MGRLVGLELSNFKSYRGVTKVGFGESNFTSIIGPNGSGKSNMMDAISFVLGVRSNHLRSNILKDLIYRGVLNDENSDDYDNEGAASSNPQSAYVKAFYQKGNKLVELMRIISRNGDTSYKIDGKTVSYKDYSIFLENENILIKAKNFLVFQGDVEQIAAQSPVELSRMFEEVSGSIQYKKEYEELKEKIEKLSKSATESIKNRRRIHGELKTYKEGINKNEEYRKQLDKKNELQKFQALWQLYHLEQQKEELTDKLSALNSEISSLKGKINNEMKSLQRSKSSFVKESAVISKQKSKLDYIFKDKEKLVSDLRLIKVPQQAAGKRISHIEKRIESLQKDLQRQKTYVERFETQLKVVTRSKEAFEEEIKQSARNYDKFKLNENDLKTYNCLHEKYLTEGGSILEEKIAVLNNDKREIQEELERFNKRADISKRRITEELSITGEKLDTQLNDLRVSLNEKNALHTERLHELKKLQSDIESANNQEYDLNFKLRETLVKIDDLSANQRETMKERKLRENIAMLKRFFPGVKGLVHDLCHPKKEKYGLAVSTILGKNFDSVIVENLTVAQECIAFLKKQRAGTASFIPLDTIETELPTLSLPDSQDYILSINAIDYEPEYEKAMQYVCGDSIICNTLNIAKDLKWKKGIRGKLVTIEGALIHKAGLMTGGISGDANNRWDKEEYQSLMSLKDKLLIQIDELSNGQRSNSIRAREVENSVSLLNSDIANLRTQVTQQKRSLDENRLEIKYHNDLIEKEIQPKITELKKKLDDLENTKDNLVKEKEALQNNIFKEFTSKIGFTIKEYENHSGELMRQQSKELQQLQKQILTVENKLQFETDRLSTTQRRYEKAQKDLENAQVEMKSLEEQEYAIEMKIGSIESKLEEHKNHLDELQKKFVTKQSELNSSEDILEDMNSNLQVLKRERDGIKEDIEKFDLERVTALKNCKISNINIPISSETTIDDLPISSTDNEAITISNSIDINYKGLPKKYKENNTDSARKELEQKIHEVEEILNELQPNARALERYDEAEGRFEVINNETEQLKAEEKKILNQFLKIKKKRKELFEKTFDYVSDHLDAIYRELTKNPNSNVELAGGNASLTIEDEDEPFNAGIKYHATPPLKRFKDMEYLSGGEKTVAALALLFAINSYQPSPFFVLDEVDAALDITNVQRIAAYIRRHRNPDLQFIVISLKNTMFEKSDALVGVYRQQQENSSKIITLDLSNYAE
T3 sequence (P47037 whole entry, chain 2 of 3): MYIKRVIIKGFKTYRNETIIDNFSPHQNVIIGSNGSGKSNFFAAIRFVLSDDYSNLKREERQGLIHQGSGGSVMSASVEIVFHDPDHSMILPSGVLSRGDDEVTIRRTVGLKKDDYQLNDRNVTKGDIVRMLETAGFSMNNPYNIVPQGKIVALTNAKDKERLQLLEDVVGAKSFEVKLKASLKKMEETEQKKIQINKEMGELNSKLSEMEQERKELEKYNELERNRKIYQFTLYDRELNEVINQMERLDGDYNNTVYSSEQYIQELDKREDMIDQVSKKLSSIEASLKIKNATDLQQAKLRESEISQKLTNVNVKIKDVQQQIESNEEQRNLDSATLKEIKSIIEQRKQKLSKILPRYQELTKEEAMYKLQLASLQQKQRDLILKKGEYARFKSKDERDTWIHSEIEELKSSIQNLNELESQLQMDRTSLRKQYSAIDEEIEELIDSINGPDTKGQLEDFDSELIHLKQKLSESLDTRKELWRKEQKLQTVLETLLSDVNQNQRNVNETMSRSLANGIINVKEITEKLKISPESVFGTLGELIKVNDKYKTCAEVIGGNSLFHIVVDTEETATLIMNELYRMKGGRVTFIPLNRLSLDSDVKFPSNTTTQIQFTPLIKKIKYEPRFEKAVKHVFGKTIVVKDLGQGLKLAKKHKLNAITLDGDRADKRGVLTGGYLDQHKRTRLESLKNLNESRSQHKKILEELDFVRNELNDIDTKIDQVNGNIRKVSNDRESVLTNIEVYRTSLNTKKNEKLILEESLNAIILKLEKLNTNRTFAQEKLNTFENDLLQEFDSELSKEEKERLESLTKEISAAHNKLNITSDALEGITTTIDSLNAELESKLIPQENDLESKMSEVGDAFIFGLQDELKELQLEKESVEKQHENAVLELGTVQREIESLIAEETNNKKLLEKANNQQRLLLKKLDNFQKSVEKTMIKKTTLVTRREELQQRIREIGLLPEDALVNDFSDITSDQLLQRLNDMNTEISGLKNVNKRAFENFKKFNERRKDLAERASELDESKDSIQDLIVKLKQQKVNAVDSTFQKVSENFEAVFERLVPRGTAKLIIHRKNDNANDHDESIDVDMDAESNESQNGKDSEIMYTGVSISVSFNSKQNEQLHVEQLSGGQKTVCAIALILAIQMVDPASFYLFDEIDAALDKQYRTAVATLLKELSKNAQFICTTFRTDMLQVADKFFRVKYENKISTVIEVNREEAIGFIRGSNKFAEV
T3 sequence (P40541 whole entry, chain 4 of 3): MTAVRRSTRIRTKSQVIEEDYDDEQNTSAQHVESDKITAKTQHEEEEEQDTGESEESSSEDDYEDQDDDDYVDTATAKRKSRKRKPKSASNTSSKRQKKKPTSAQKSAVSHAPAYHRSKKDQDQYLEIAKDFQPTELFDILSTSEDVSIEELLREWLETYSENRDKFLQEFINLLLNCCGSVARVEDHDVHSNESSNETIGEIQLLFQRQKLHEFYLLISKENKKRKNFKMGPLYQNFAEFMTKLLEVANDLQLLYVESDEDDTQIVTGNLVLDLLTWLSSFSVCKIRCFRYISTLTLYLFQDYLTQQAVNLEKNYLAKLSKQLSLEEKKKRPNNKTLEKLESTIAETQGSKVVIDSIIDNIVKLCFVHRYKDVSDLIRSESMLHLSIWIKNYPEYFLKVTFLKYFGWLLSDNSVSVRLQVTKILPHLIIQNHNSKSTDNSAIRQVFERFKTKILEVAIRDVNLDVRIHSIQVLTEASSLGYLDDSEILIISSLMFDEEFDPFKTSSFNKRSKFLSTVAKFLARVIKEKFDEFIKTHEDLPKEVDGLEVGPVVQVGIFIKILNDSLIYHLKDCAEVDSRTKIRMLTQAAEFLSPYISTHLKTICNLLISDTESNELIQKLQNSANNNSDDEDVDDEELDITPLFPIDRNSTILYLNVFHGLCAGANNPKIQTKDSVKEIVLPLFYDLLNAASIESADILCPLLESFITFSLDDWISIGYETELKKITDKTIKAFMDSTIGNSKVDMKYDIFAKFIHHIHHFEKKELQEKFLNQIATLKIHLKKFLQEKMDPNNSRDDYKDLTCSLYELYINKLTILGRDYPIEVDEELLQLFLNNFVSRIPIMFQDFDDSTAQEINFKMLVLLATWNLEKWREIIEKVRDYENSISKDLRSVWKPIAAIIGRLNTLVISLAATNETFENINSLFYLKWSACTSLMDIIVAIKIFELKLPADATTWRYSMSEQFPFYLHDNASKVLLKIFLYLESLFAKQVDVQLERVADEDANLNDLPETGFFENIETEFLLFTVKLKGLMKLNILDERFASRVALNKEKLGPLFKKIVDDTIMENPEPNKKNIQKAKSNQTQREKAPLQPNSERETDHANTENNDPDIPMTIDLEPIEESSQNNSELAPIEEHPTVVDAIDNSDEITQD
The experiment in a line: pull-down; cohesin tetramer (200-600 nM) held on Protein A dynabeads by anti-Pk antibody (Pk tag on Smc1); 200 nM prey, 30 °C, 5 min; 25 mM HEPES-KOH pH 7.6, 100 mM potassium glutamate, 10 mM magnesium acetate, 0.12% NP-40; SDS elution, Coomassie staining.

For the next assay, the target named is T4, Smc1-Smc3 dimer (S. cerevisiae (budding yeast), UniProt P32908 1-1225; P47037 1-1230).
T4 construct: Smc1, cohesin subunit, budding yeast; Smc3, cohesin subunit, budding yeast; also called SMC dimer; SMC dimers (Smc1-Smc3); source: purified following the same protocol as cohesin tetramers (IgG agarose, 3C protease cleavage); not shown: Protein A, C-terminal, cleaved
T4 sequence (P32908 whole entry, chain 1 of 2): as the sequence (P32908 whole entry, chain 1 of 3) above
T4 sequence (P47037 whole entry, chain 2 of 2): as the sequence (P47037 whole entry, chain 2 of 3) above
The experiment in a line: pull-down; Tof1-Csm3 (200-600 nM) held on calmodulin dynabeads; cohesin tetramer, trimer or Smc1-Smc3 dimer as prey; interaction buffer with 100 mM potassium glutamate; Coomassie staining; benzonase or NaCl added where indicated.

The target of assay [2] is T5, cohesin trimer (Smc1-Smc3-Scc1) (S. cerevisiae (budding yeast), UniProt P32908 1-1225; P47037 1-1230; Q12158 1-566).
T5 construct: Smc1, cohesin subunit, budding yeast; Smc3, cohesin subunit, budding yeast; Scc1, cohesin subunit, budding yeast; source: purified following the same protocol as cohesin tetramers (IgG agarose, 3C protease cleavage); copies: + +
T5 sequence (P32908 whole entry, chain 1 of 2): as the sequence (P32908 whole entry, chain 1 of 3) above
T5 sequence (P47037 whole entry, chain 2 of 2): as the sequence (P47037 whole entry, chain 2 of 3) above
The assay is described as above.

B1: Scc1 (natural protein, S. cerevisiae (budding yeast), UniProt Q12158 1-566, looked up)
chain: MVTENPQRLTVLRLATNKGPLAQIWLASNMSNIPRGSVIQTHIAESAKEIAKASGCDDESGDNEYITLRTSGELLQGIVRVYSKQATFLLTDIKDTLTKISMLFKTSQKMTSTVNRLNTVTRVHQLMLEDAVTEREVLVTPGLEFLDDTTIPVGLMAQENSMERKVQGAAPWDTSLEVGRRFSPDEDFEHNNLSSMNLDFDIEEGPITSKSWEEGTRQSSRNFDTHENYIQDDDFPLDDAGTIGWDLGITEKNDQNNDDDDNSVEQGRRLGESIMSEEPTDFGFDLDIEKEAPAGNIDTITDAMTESQPKQTGTRRNSKLLNTKSIQIDEETENSESIASSNTYKEERSNNLLTPQPTNFTTKRLWSEITESMSYLPDPILKNFLSYESLKKRKIHNGREGSIEEPELNVSLNLTDDVISNAGTNDNSFNELTDNMSDFVPIDAGLNEAPFPEENIIDAKTRNEQTTIQTEKVRPTPGEVASKAIVQMAKILRKELSEEKEVIFTDVLKSQANTEPENITKREASRGFFDILSLATEGCIGLSQTEAFGNIKIDAKPALFERFINA
notes: Scc1, budding yeast; the Scc1 chain of m1; Stood in the cross-linking sample as a chain of cohesin; source: purified as part of cohesin, as previously described (Minamino et al. 2018)
Consider B1, for which the binding result in the assay with Tof1 and with Chl1 was “binds” each time.

B2: Tof1-Csm3 complex (complex, S. cerevisiae (budding yeast))
chain 1: MSADLQQGTTNAADFSLTVLRARIALLATAIGGPDYTSQIDPPPYKLGDDCLACLKDLKRWFKLVDDQQKRWDVAMAVAEYRILTDDLLPILIDWENKCSLAAKLAKNNPDHEEFRNKAYYDKIALNCLQLLVLMTWPLIVTEQSSSNQITLYGELKKHQLVYKKTILSMESGKVLRAAIRLALDVIKIDRLSRTPRDNMVLKLVLNFFRNVIAIEPGEFTINTKKSMPKKGITSIDTLPPNVSMDDISLNTVISSFHKNKVFGFLLTLTSSLSKEFDQDFINIPLLEIMFYFTKDVNQELLFPRQFETGTHSKVVNKNESSSANNIVTSAGFELSKLLQKEHQMRKNVIKHTSARHSRFGGLLSIQTPDKTRLTVSGSQALVDEKIALQKLDDSKKWNKRIIKKHQSVAAEGLPNSLLNSQTGKAIFFTESNGKHFKEFINNFIDSGFNILLHSVTNYFTTEQDRMVTLEQVEYLLFFAWFVKYQLLRSKIDNSADIKQVSEALKEVTFILVSSLLRSAYDLKNWTVTHAGMIAFNELLNLVSRTKAAQEEDSTDIEFIVSRLFSDERIQLLSNLPKIGSKYSLQFMKSCIELTHSVLKVLEQYSDDKTLVIEGKSRRQKKFNISEGDITKLIEEENVDRDEALDILTSSLRSIEVNFQKVQANYMTEPVIETYINFLERFRELEDDSIKKVFSFFHRVFVQAKEQALLFRFDLIILLREMLSPDGLDRMSRSRKYVSQFSDYFLARLKKRLKKSPAWFVGLLFPPLHNSEVGFYQRYGEYNVLNNESMYAAPASQFKPIPDEEALPPSILLDMKYGVLVSTLLDDGKTELLDQLLKHITHTLDIFKSWLTVNVNAGKETVNPPNEYFTLTGVLNNDPIFKDKDYRALLLLIGYSIPRKINEPCFLPGTVEVSDLTVSCELVKKYLSTPFETPNGLPSSSYLLRVRSEKDSFSHNEQDGWEGDDDYDYNDPYIVPDDQILSKSDAAYFKDLDNNASDKLKGTKFSKGIARSKKKDKRKRRKGEAKTNLPMFGDQDDERPQTVRERHGVFSKEFISDSEDDEDLMNPIFFENETYMRWLLDKNNGQLTEDRYIQFAKFAAERMNNGGVVTGDYTSLFGGSIPSIESIRATESSSFAPDKSLISLASHVASEMSIFDVNNNNNNQLSDDDVNSESRNSLGSSQPSNSQNMFQSEVYSRKESTKRSLEASAADESDEDEEAIRLFGKKSRVVLSQGDSDD
chain 2: MDQDFDSLLLGFNDSDSVQKDPTVPNGLDGSVVDPTIADPTAITARKRRPQVKLTAEKLLSDKGLPYVLKNAHKRIRISSKKNSYDNLSNIIQFYQLWAHELFPKAKFKDFMKICQTVGKTDPVLREYRVSLFRDEMGMSFDVGTRETGQDLERQSPMVEEHVTSAEERPIVADSFAQDKRNVNNVDYDNDEDDDIYHLSYRNRRGRVLDERGNNETVLNNVVPPKEDLDALLKTFRVQGPVGLEENEKKLLLGWLDAHRKMEKGSMTEEDVQLIQSLEEWEMNDIEGQHTHYDLLPGGDEFGVDQDELDAMKEMGF
notes: Tof1, budding yeast; Csm3, budding yeast; Held on calmodulin dynabeads when used as bait; source: purified as previously described (Yeeles et al. 2017)
With B2, the binding result (in assay [1]; in the assay with Smc1-Smc3 dimer; in assay [2]) was “binds” each time.

The values above are taken from article PMC10247859, “Replisome-cohesin interactions provided by the Tof1-Csm3 and Mrc1 cohesion establishment factors” (Chromosoma, 2023).
